The labels stand for the following.
B1: Ic_S4_P4E.1_K4.1_C4.1_H4.1_A4.1_[T5G]_[A6C]_[T7G]_F4.1_[T8G]_[A9C]_T4.1 (ssRNA)
RNA: UUUGACAACUGAUCGUUCUUUCUUGUAGCGGCUUCUUUCUCGAUCAGUUGUCUUU
B2: Ic_S4_P4E.1_K4.1_C4.1_H4.1_A4.1_[T5G]_[A6C]_[T7C]_F4.1_[T8A]_[A9T]_T4.1 (ssRNA)
RNA: UUUGACAACUGAUCGUUCUUUCUUGUAGCCAUUUCUUUCUCGAUCAGUUGUCUUU
B3: Ic_S4_P4E.1_K4.1_C4.1_H4.1_A4.1_[T5G]_[A6T]_[T7A]_F4.1_[T8C]_[A9T]_T4.1 (ssRNA)
RNA: UUUGACAACUGAUCGUUCUUUCUUGUAGUACUUUCUUUCUCGAUCAGUUGUCUUU
B4: Ic_S4_P4E.1_K4.1_C4.1_H4.1_A4.1_[T5G]_[A6C]_[T7G]_F4.1_[T8C]_[A9C]_T4.1 (ssRNA)
RNA: UUUGACAACUGAUCGUUCUUUCUUGUAGCGCCUUCUUUCUCGAUCAGUUGUCUUU
B5: Ic_S4_P4E.1_K4.1_C4.1_H4.1_A4.1_[T5G]_[A6T]_[T7A]_F4.1_[A9G]_T4.1 (ssRNA)
RNA: UUUGACAACUGAUCGUUCUUUCUUGUAGUAUGUUCUUUCUCGAUCAGUUGUCUUU
B6: Ic_S4_P4E.1_K4.1_C4.1_H4.1_A4.1_[T5G]_[A6T]_[T7G]_F4.1_[T8C]_[A9T]_T4.1 (ssRNA)
RNA: UUUGACAACUGAUCGUUCUUUCUUGUAGUGCUUUCUUUCUCGAUCAGUUGUCUUU
B7: Ic_S4_P4E.1_K4.1_C4.1_H4.1_A4.1_[T5G]_[A6T]_[T7A]_F4.1_T4.1 (ssRNA)
RNA: UUUGACAACUGAUCGUUCUUUCUUGUAGUAUAUUCUUUCUCGAUCAGUUGUCUUU
B8: Ic_S4_P4E.1_K4.1_C4.1_H4.1_A4.1_[T5G]_[A6T]_[T7A]_F4.1_[T8C]_[A9G]_T4.1 (ssRNA)
RNA: UUUGACAACUGAUCGUUCUUUCUUGUAGUACGUUCUUUCUCGAUCAGUUGUCUUU
B9: Ic_S4_P4E.1_K4.1_C4.1_H4.1_A4.1_[T5G]_[A6C]_[T7A]_F4.1_[T8G]_[A9T]_T4.1 (ssRNA)
RNA: UUUGACAACUGAUCGUUCUUUCUUGUAGCAGUUUCUUUCUCGAUCAGUUGUCUUU
B10: Ic_S4_P4E.1_K4.1_C4.1_H4.1_A4.1_[T5G]_[A6T]_[T7C]_F4.1_[T8C]_[A9T]_T4.1 (ssRNA)
RNA: UUUGACAACUGAUCGUUCUUUCUUGUAGUCCUUUCUUUCUCGAUCAGUUGUCUUU
B11: Ic_S4_P4E.1_K4.1_C4.1_H4.1_A4.1_[T5G]_[A6T]_[T7C]_F4.1_[T8C]_[A9C]_T4.1 (ssRNA)
RNA: UUUGACAACUGAUCGUUCUUUCUUGUAGUCCCUUCUUUCUCGAUCAGUUGUCUUU
B12: Ic_S4_P4E.1_K4.1_C4.1_H4.1_A4.1_[T5G]_[A6T]_[T7A]_F4.1_[T8A]_T4.1 (ssRNA)
RNA: UUUGACAACUGAUCGUUCUUUCUUGUAGUAAAUUCUUUCUCGAUCAGUUGUCUUU
B13: Ic_S4_P4E.1_K4.1_C4.1_H4.1_A4.1_[T5G]_[A6C]_[T7A]_F4.1_[A9C]_T4.1 (ssRNA)
RNA: UUUGACAACUGAUCGUUCUUUCUUGUAGCAUCUUCUUUCUCGAUCAGUUGUCUUU
B14: Ic_S4_P4E.1_K4.1_C4.1_H4.1_A4.1_[T5G]_[A6T]_F4.1_[T8G]_[A9T]_T4.1 (ssRNA)
RNA: UUUGACAACUGAUCGUUCUUUCUUGUAGUUGUUUCUUUCUCGAUCAGUUGUCUUU
B15: Ic_S4_P4E.1_K4.1_C4.1_H4.1_A4.1_[T5G]_[A6C]_F4.1_[A9T]_T4.1 (ssRNA)
RNA: UUUGACAACUGAUCGUUCUUUCUUGUAGCUUUUUCUUUCUCGAUCAGUUGUCUUU
B16: Ic_S4_P4E.1_K4.1_C4.1_H4.1_A4.1_[T5G]_[A6T]_[T7A]_F4.1_[A9T]_T4.1 (ssRNA)
RNA: UUUGACAACUGAUCGUUCUUUCUUGUAGUAUUUUCUUUCUCGAUCAGUUGUCUUU
B17: Ic_S4_P4E.1_K4.1_C4.1_H4.1_A4.1_[T5G]_[A6T]_[T7C]_F4.1_[A9C]_T4.1 (ssRNA)
RNA: UUUGACAACUGAUCGUUCUUUCUUGUAGUCUCUUCUUUCUCGAUCAGUUGUCUUU
B18: Ic_S4_P4E.1_K4.1_C4.1_H4.1_A4.1_[T5G]_[A6C]_[T7C]_F4.1_[T8A]_T4.1 (ssRNA)
RNA: UUUGACAACUGAUCGUUCUUUCUUGUAGCCAAUUCUUUCUCGAUCAGUUGUCUUU
B19: Ic_S4_P4E.1_K4.1_C4.1_H4.1_A4.1_[T5G]_[A6T]_[T7C]_F4.1_[T8C]_T4.1 (ssRNA)
RNA: UUUGACAACUGAUCGUUCUUUCUUGUAGUCCAUUCUUUCUCGAUCAGUUGUCUUU
B20: Ic_S4_P4E.1_K4.1_C4.1_H4.1_A4.1_[T5G]_[A6C]_[T7A]_F4.1_[T8A]_[A9C]_T4.1 (ssRNA)
RNA: UUUGACAACUGAUCGUUCUUUCUUGUAGCAACUUCUUUCUCGAUCAGUUGUCUUU

The target of this data set is T1, PUF4 RNA-binding domain (Saccharomyces cerevisiae, UniProt P25339 537-888).
T1 sequence: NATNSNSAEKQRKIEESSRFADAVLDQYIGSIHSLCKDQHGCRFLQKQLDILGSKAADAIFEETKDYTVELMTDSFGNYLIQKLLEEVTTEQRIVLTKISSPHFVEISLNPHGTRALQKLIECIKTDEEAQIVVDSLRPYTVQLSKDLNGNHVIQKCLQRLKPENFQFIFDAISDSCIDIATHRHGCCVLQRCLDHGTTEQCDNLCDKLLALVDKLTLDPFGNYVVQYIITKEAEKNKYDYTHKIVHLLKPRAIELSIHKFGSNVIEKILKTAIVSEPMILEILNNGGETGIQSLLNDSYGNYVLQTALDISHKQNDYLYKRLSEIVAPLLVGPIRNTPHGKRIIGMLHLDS
The experiment in a line: Mg; RNA-MaP; 20 mM Na-HEPES pH 7.4, 30 mM KOAc, 0.75 mM MgCl2, 0.1% Tween-20, 5% glycerol, 0.1 mg/mL BSA, 2 mM DTT; 25 C; 0.0125-409.6 nM protein. To be noted: tags: N-His6-TEV cleaved; C-SNAP kept, Cy3B-labelled; label: tethered on chip by stalled RNA polymerase.
UCUCUUUGUCUAUUUUCUCUU (ssRNA) [Ib_S1_P4E.1_K4.1_C4.1_H4.1_[A4C]_A4.1_F4.1_[A9T]_T4.1]: binding was characterised by a dissociation constant (Kd) of 807 nM. In other words, the sub-micromolar range.
Under UCUCUUUGUUUAUUCUCUCUU (ssRNA) [Ib_S1_P4E.1_K4.1_C4.1_H4.1_[A4T]_A4.1_F4.1_[A9C]_T4.1] stands 804 nM; under UCUCUUUGUCUAUUCUCUCUU (ssRNA) [Ib_S1_P4E.1_K4.1_C4.1_H4.1_[A4C]_A4.1_F4.1_[A9C]_T4.1], 1920 nM.
To B1 belongs above 2300 nM; to B2, 428 nM; to B3, 285 nM.
To B4 belongs 1050 nM.
Consider B5, for which binding was put at a Kd of 37.3 nM.
Under B6 stands 467 nM; under B7, 2.95 nM; under B8, 688 nM.
With B9, the Kd came out at 495 nM. The Kd values of the last two molecules are within 1.5-fold of each other.
To B10 belongs 194 nM.
B11 yielded a Kd of 514 nM. This Kd is about 2.6-fold higher than that of the molecule before.
To B12 belongs 445 nM; to B13, 61.1 nM; to B14, 291 nM.
Under B15 stands 40.5 nM; under B16, 40.6 nM; under B17, 155 nM.
Under B18 stands 780 nM.
B19 returned a Kd of 445 nM.
Molecule B20 had a Kd of 1350 nM.

The record behind these values is paper PMC9352680, “A comprehensive thermodynamic model for RNA binding by the Saccharomyces cerevisiae Pumilio protein PUF4”.
